The text below walks through data of the supplement of paper PMC9112550, “Optimization of the antimicrobial peptide Bac7 by deep mutational scanning” (BMC Biology, 2022).
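Also: peptides expressed intracellularly from a pBAD plasmid library in pooled LB shake-flask culture, induced with 0.3% L-arabinose, DNA abundance read by NGS, three biological replicates, DESeq2 with apeglm shrinkage.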

This data set relates to Escherichia coli TOP10. As to the kind of experiment: shrunken log2 fold change of peptide-encoding DNA abundance (4.5 h post-induction vs induction); higher = less antimicrobial activity (less host growth inhibition). The note with it: time post-induction: 4.5 h; library: site-saturation at positions 5, 18, 19, 20.
Take RRIRWRPPRLPRPRPRPIERPRP: the “shrunken log2 fold change” value amounted to 0.0857. Take RRIRLRPPRLPRPRPRPYYNPRP: the “shrunken log2 fold change” value is -1.18.

For RRIRNRPPRLPRPRPRPWHPPRP, the “shrunken log2 fold change” value is -0.277.

Consider RRIRPRPPRLPRPRPRPQYQPRP, for which the “shrunken log2 fold change” value is -0.263. With RRIRMRPPRLPRPRPRPDSLPRP, the “shrunken log2 fold change” value is -0.0169.

Consider RRIRPRPPRLPRPRPRPLCEPRP, for which the “shrunken log2 fold change” value was 0.0379. For RRIRFRPPRLPRPRPRPDKVPRP, the “shrunken log2 fold change” value was -0.281.

In the case of RRIRWRPPRLPRPRPRPRDVPRP, the “shrunken log2 fold change” value was 0.333. For the sequence RRIRQRPPRLPRPRPRPSILPRP, the “shrunken log2 fold change” value was -0.177.

As to RRIRIRPPRLPRPRPRPQYCPRP, the “shrunken log2 fold change” value was -0.15. For RRIRNRPPRLPRPRPRPNMTPRP, the “shrunken log2 fold change” value is -0.345. Turning to RRIRMRPPRLPRPRPRPMAKPRP, the “shrunken log2 fold change” value is 0.245. Regarding RRIRFRPPRLPRPRPRPITSPRP, the “shrunken log2 fold change” value is -0.178. Turning to RRIRFRPPRLPRPRPRPECDPRP, the “shrunken log2 fold change” value came out at 0.248.

With RRIRMRPPRLPRPRPRPNCIPRP, the “shrunken log2 fold change” value is 0.11. RRIRDRPPRLPRPRPRPPCHPRP: the “shrunken log2 fold change” value was -0.363. Turning to RRIRERPPRLPRPRPRPNKQPRP, the “shrunken log2 fold change” value was -0.174. For the sequence RRIRLRPPRLPRPRPRPNERPRP, the “shrunken log2 fold change” value was -0.0191. Regarding RRIRGRPPRLPRPRPRPVWYPRP, the “shrunken log2 fold change” value came to 0.196.

Regarding RRIRWRPPRLPRPRPRPCKQPRP, the “shrunken log2 fold change” value is -0.156. For RRIRMRPPRLPRPRPRPDMFPRP, the “shrunken log2 fold change” value was 2.25.

Turning to RRIRYRPPRLPRPRPRPHRIPRP, the “shrunken log2 fold change” value is -0.474.

Consider RRIRGRPPRLPRPRPRPDLTPRP, for which the “shrunken log2 fold change” value was found to be 0.219. As to RRIRRRPPRLPRPRPRPWRCPRP, the “shrunken log2 fold change” value was found to be 0.175. As for RRIRIRPPRLPRPRPRPHWGPRP, the “shrunken log2 fold change” value was -0.175. Take RRIRTRPPRLPRPRPRPLGHPRP: the “shrunken log2 fold change” value is -0.459. As to RRIRRRPPRLPRPRPRPVWRPRP, the “shrunken log2 fold change” value was determined as 0.436. RRIRHRPPRLPRPRPRPCLRPRP: the “shrunken log2 fold change” value stood at 0.0119. RRIRMRPPRLPRPRPRPCVGPRP: the “shrunken log2 fold change” value turned out to be 0.584. In the case of RRIRGRPPRLPRPRPRPRYRPRP, the “shrunken log2 fold change” value was found to be 0.0699. In the case of RRIRARPPRLPRPRPRPAGMPRP, the “shrunken log2 fold change” value amounted to 0.432. To RRIRNRPPRLPRPRPRPNSYPRP belongs -0.299; to RRIRWRPPRLPRPRPRPPVHPRP, -0.221; to RRIRQRPPRLPRPRPRPTHWPRP, 0.427. Regarding RRIRTRPPRLPRPRPRPGQYPRP, the “shrunken log2 fold change” value was -0.286. As to RRIRVRPPRLPRPRPRPPNWPRP, the “shrunken log2 fold change” value turned out to be 0.293. As to RRIRVRPPRLPRPRPRPRLSPRP, the “shrunken log2 fold change” value turned out to be 0.0321. Consider RRIRSRPPRLPRPRPRPFYTPRP, for which the “shrunken log2 fold change” value is -0.903. RRIRYRPPRLPRPRPRPKCSPRP: the “shrunken log2 fold change” value is -0.433. To RRIRPRPPRLPRPRPRPPYSPRP belongs -0.181; to RRIRSRPPRLPRPRPRPKVAPRP, 0.509; to RRIRLRPPRLPRPRPRPWRGPRP, 0.277. Consider RRIRFRPPRLPRPRPRPMKFPRP, for which the “shrunken log2 fold change” value was -0.681. On to RRIRVRPPRLPRPRPRPMCMPRP, for which the “shrunken log2 fold change” value worked out at 0.0119. To RRIRTRPPRLPRPRPRPYEVPRP belongs -0.0168; to RRIRKRPPRLPRPRPRPDLLPRP, 0.237. Consider RRIRLRPPRLPRPRPRPFPVPRP, for which the “shrunken log2 fold change” value stood at 0.11. In the case of RRIRDRPPRLPRPRPRPFVLPRP, the “shrunken log2 fold change” value is 0.045. The figure for RRIRVRPPRLPRPRPRPYQDPRP is -1.42; for RRIRLRPPRLPRPRPRPRFTPRP it is 0.0165. For the sequence RRIRERPPRLPRPRPRPKASPRP, the “shrunken log2 fold change” value came to 0.0444.

As for RRIRERPPRLPRPRPRPLINPRP, the “shrunken log2 fold change” value was -0.512. With RRIRSRPPRLPRPRPRPTAIPRP, the “shrunken log2 fold change” value is -0.0172. In the case of RRIRYRPPRLPRPRPRPPQEPRP, the “shrunken log2 fold change” value came to 1.9. Turning to RRIRGRPPRLPRPRPRPAIWPRP, the “shrunken log2 fold change” value came out at 0.396. Turning to RRIRYRPPRLPRPRPRPGQCPRP, the “shrunken log2 fold change” value worked out at 0.00338.

Consider RRIRDRPPRLPRPRPRPTLEPRP, for which the “shrunken log2 fold change” value is 1.06.

For the sequence RRIRHRPPRLPRPRPRPDMWPRP, the “shrunken log2 fold change” value was -0.175.

As to RRIRWRPPRLPRPRPRPKKMPRP, the “shrunken log2 fold change” value was 0.0841. With RRIRVRPPRLPRPRPRPMWVPRP, the “shrunken log2 fold change” value was found to be 0.0736.

Take RRIRFRPPRLPRPRPRPWVRPRP: the “shrunken log2 fold change” value came out at 0.0245. For the sequence RRIRCRPPRLPRPRPRPPLVPRP, the “shrunken log2 fold change” value is 0.584. With RRIRMRPPRLPRPRPRPKPVPRP, the “shrunken log2 fold change” value came out at 0.895.

For the sequence RRIRWRPPRLPRPRPRPVNHPRP, the “shrunken log2 fold change” value is -0.191. The figure for RRIRNRPPRLPRPRPRPSYFPRP is -0.699. Take RRIRRRPPRLPRPRPRPWYQPRP: the “shrunken log2 fold change” value was -3.03. Take RRIRQRPPRLPRPRPRPCLFPRP: the “shrunken log2 fold change” value was -0.268. Consider RRIRNRPPRLPRPRPRPFYVPRP, for which the “shrunken log2 fold change” value was -0.181. RRIRVRPPRLPRPRPRPLVVPRP: the “shrunken log2 fold change” value is -0.21.

As to RRIRVRPPRLPRPRPRPCWTPRP, the “shrunken log2 fold change” value is -0.665.

For RRIRARPPRLPRPRPRPFQCPRP, the “shrunken log2 fold change” value turned out to be 0.0143.

In the case of RRIRVRPPRLPRPRPRPRMRPRP, the “shrunken log2 fold change” value was 0.873.

In the case of RRIRDRPPRLPRPRPRPWYNPRP, the “shrunken log2 fold change” value is -0.102. As for RRIRWRPPRLPRPRPRPDIWPRP, the “shrunken log2 fold change” value turned out to be 0.642. The figure for RRIRARPPRLPRPRPRPFYEPRP is -0.125; for RRIRCRPPRLPRPRPRPTGWPRP it is 0.314.

On to RRIRFRPPRLPRPRPRPNDDPRP, for which the “shrunken log2 fold change” value was -0.755. As for RRIRWRPPRLPRPRPRPNYMPRP, the “shrunken log2 fold change” value is -0.385. To RRIRARPPRLPRPRPRPMWFPRP belongs 0.0716; to RRIRCRPPRLPRPRPRPQVFPRP, -0.13; to RRIRVRPPRLPRPRPRPGVHPRP, 0.107. As to RRIRSRPPRLPRPRPRPTHCPRP, the “shrunken log2 fold change” value came to 0.36. Take RRIRCRPPRLPRPRPRPLTGPRP: the “shrunken log2 fold change” value is -0.994. On to RRIRERPPRLPRPRPRPTYKPRP, for which the “shrunken log2 fold change” value is -0.579. Regarding RRIRVRPPRLPRPRPRPPLVPRP, the “shrunken log2 fold change” value came to 0.227.

As for RRIRERPPRLPRPRPRPQNMPRP, the “shrunken log2 fold change” value is -1.05. With RRIRWRPPRLPRPRPRPKGCPRP, the “shrunken log2 fold change” value is -0.00617.

RRIRCRPPRLPRPRPRPNLDPRP: the “shrunken log2 fold change” value was -0.478. Turning to RRIRKRPPRLPRPRPRPWAEPRP, the “shrunken log2 fold change” value was determined as 0.0785.

RRIRVRPPRLPRPRPRPRAPPRP: the “shrunken log2 fold change” value came out at 0.831.

In the case of RRIRERPPRLPRPRPRPGECPRP, the “shrunken log2 fold change” value is -0.0577. RRIRMRPPRLPRPRPRPKISPRP: the “shrunken log2 fold change” value stood at 0.0938. Take RRIRWRPPRLPRPRPRPVIYPRP: the “shrunken log2 fold change” value is -0.279. Turning to RRIRARPPRLPRPRPRPHDYPRP, the “shrunken log2 fold change” value turned out to be 0.141.

In the case of RRIRKRPPRLPRPRPRPKKMPRP, the “shrunken log2 fold change” value came out at 0.718. Take RRIRSRPPRLPRPRPRPHIEPRP: the “shrunken log2 fold change” value was -0.295. In the case of RRIRTRPPRLPRPRPRPHHSPRP, the “shrunken log2 fold change” value was -0.133. As to RRIRTRPPRLPRPRPRPHLQPRP, the “shrunken log2 fold change” value was -0.321.

Turning to RRIRTRPPRLPRPRPRPAAPPRP, the “shrunken log2 fold change” value turned out to be 0.275. For the sequence RRIRLRPPRLPRPRPRPHTNPRP, the “shrunken log2 fold change” value is -0.377. Turning to RRIRARPPRLPRPRPRPRHHPRP, the “shrunken log2 fold change” value is 0.0585. Consider RRIRHRPPRLPRPRPRPLHMPRP, for which the “shrunken log2 fold change” value is -0.0732.

In the case of RRIRKRPPRLPRPRPRPSALPRP, the “shrunken log2 fold change” value amounted to 0.271.

With RRIRMRPPRLPRPRPRPWWQPRP, the “shrunken log2 fold change” value came to 0.183. Regarding RRIRSRPPRLPRPRPRPNENPRP, the “shrunken log2 fold change” value is -0.118.

As for RRIRLRPPRLPRPRPRPHKWPRP, the “shrunken log2 fold change” value is -0.0343. The figure for RRIRSRPPRLPRPRPRPYNHPRP is -1.54; for RRIRMRPPRLPRPRPRPAHAPRP it is 1.16; for RRIRIRPPRLPRPRPRPFWGPRP it is -0.139. For RRIRYRPPRLPRPRPRPILKPRP, the “shrunken log2 fold change” value was -1.06. Regarding RRIRWRPPRLPRPRPRPSVKPRP, the “shrunken log2 fold change” value is -0.159. For the sequence RRIRARPPRLPRPRPRPGTAPRP, the “shrunken log2 fold change” value turned out to be 0.493. Turning to RRIRWRPPRLPRPRPRPKENPRP, the “shrunken log2 fold change” value amounted to 0.373.

Regarding RRIRRRPPRLPRPRPRPGGVPRP, the “shrunken log2 fold change” value turned out to be 0.483.

For the sequence RRIRLRPPRLPRPRPRPSVQPRP, the “shrunken log2 fold change” value was -0.57. Take RRIRWRPPRLPRPRPRPEVRPRP: the “shrunken log2 fold change” value stood at 0.495. As to RRIRKRPPRLPRPRPRPSMKPRP, the “shrunken log2 fold change” value is -0.212.

Regarding RRIRERPPRLPRPRPRPCGHPRP, the “shrunken log2 fold change” value was 0.0222.

For RRIRCRPPRLPRPRPRPNGRPRP, the “shrunken log2 fold change” value was found to be 0.0604. For the sequence RRIRGRPPRLPRPRPRPAMAPRP, the “shrunken log2 fold change” value was 0.913. As for RRIRIRPPRLPRPRPRPMPWPRP, the “shrunken log2 fold change” value is 0.306. Consider RRIRHRPPRLPRPRPRPMVAPRP, for which the “shrunken log2 fold change” value amounted to 0.195.

For RRIRQRPPRLPRPRPRPNGQPRP, the “shrunken log2 fold change” value was -0.262. With RRIRYRPPRLPRPRPRPPNVPRP, the “shrunken log2 fold change” value came out at 0.0158. In the case of RRIRIRPPRLPRPRPRPQHDPRP, the “shrunken log2 fold change” value is -0.0884.
